Among the data in PMC2587436 are Kd values, retold here.

Common to all, as to test: SPR
Test [1] deals with GST-APPBP1-UBA3Arg190Ala (Cys216Ala) (human) (UniProt Q13564).
For test [2], the target named is GST-APPBP1-UBA3Arg190Gln (Cys216Ala) (human) (UniProt Q13564).
For test [3], the target named is GST-APPBP1-UBA3 (Cys216Ala) (human) (UniProt Q13564).

On to “NEDD8 (from UniProt Q15843 1-76) (natural protein)”, for which the Kd is 5.5 µM in test [1], 3.46 µM in test [2] and 0.333 µM in test [3].

With “NEDD8Ala72Lys (from UniProt Q15843 1-76) (natural protein)”, the Kd was 2.97 µM in test [1], 0.886 µM in test [2] and greater than 10 µM in test [3].

As to “NEDD8Ala72Gln (from UniProt Q15843 1-76) (natural protein)”, the Kd in test [1] is greater than 10 µM; in test [2], greater than 10 µM; in test [3], 8.75 µM.

In the case of “NEDD8Ala72Arg (from UniProt Q15843 1-76) (natural protein)”, the Kd was 1.66 µM in test [1], 1.02 µM in test [2] and greater than 10 µM in test [3].
